Target: ABCA1 (Homo sapiens, UniProt O95477)
Assay: ABCA1-mediated cholesterol efflux from BHK-ABCA1 cells, acceptor in media
Type: cell-based
Set-up: expressed in transfected cells; host or cells: BHK cells, stably transfected, induced with 10 nM mifepristone (gift of J. F. Oram)
Conditions: BHK-ABCA1 induced with mifepristone, 4 h, 37°C, mean ± SD
From the text: BHK cells stably transfected with an ABCA1 or ABCG1 expression vector that is mifepristone inducible and cells transfected with the same vector lacking the ABCA1 cDNA insert (mutant or mock-transfected) were generously provided by the late Dr. John F. Oram from the Department of Medicine, University of Washington, and were characterized and cultured as previously described. […] Mouse-derived peritoneal macrophages J774 were purchased from American Tissue Culture Collection (ATCC TIB-67, Cederlane, Burlington, Canada). For induction of ABCA1, BHK cells were incubated for 18–20 h with 10 nM mifepristone. J774 macrophages were stimulated with 0.3 mM Cpt-cAMP 8-(4-Chlorophenylthio)-cyclic adenosine monophosphate (Sigma). All BHK and J774 macrophages cells were respectively grown and maintained in DMEM and RPMI containing 10% fetal serum until experimental treatment. Studies were carried out on standard 24-well plates (150,000 cells/well) unless stated otherwise
We investigated cholesterol efflux from BHK cells after adding lipid free CS-6253 to media cell culture or to human EDTA-plasma which had been stored at -80°C. BHK overexpressing human ABCA1 were labeled with 2 μCi/ml ^3H-free cholesterol (Perkin Elmer, Norwalk, Connecticut) for 24 h. Afterward, BHK-ABCA1 were stimulated with 10 nmol/l mifepristone for 18–20 h (13). Cells were incubated with various doses of acceptor in media for 4 h at 37°C. Alternatively, plasma samples were first pre-incubated for 5 min at 37°C in plasma at mole ratios (10:1 or 1:1 relative to plasma apo A-I). To obtain the HDL fraction, apoB lipoproteins were precipitated from plasma by polyethylene glycol (PEG). […]
Fig 2 Effect of CS-6253 treatment on cholesterol efflux. […] Cholesterol efflux from either ABCA1 cells or control cells to apo A-I (closed circles), and CS-6253 (closed triangles) was determined at the indicated time points. […] ABCA1 was detected from THP-1 foam cells lysis at 4°C with lysis buffer containing 0.5% n-dodecylmaltoside in the presence of a protease inhibitor mixture followed by low speed centrifugation to remove cell debris. Protein concentration was determined by standard assay (Bio-Rad). […] After electrophoresis, ABCA1 was detected by an anti-ABCA1 antibody. […] E. Quantification of FC and CE in foam cells after interaction with CS-6253 and apoA-I. After a period of 4h cholesterol efflux, THP-1 foam cell lipids were extracted with hexane: isopropanol (3v/2v) as under ‘‘Material and Methods’. 3[H]-FC and 3[H]-CE were separated by TLC and located by exposure to iodine vapor, and were scraped off into liquid scintillating vials and assayed for radioactivity. […]

ABCA1, sequence (O95477 whole entry): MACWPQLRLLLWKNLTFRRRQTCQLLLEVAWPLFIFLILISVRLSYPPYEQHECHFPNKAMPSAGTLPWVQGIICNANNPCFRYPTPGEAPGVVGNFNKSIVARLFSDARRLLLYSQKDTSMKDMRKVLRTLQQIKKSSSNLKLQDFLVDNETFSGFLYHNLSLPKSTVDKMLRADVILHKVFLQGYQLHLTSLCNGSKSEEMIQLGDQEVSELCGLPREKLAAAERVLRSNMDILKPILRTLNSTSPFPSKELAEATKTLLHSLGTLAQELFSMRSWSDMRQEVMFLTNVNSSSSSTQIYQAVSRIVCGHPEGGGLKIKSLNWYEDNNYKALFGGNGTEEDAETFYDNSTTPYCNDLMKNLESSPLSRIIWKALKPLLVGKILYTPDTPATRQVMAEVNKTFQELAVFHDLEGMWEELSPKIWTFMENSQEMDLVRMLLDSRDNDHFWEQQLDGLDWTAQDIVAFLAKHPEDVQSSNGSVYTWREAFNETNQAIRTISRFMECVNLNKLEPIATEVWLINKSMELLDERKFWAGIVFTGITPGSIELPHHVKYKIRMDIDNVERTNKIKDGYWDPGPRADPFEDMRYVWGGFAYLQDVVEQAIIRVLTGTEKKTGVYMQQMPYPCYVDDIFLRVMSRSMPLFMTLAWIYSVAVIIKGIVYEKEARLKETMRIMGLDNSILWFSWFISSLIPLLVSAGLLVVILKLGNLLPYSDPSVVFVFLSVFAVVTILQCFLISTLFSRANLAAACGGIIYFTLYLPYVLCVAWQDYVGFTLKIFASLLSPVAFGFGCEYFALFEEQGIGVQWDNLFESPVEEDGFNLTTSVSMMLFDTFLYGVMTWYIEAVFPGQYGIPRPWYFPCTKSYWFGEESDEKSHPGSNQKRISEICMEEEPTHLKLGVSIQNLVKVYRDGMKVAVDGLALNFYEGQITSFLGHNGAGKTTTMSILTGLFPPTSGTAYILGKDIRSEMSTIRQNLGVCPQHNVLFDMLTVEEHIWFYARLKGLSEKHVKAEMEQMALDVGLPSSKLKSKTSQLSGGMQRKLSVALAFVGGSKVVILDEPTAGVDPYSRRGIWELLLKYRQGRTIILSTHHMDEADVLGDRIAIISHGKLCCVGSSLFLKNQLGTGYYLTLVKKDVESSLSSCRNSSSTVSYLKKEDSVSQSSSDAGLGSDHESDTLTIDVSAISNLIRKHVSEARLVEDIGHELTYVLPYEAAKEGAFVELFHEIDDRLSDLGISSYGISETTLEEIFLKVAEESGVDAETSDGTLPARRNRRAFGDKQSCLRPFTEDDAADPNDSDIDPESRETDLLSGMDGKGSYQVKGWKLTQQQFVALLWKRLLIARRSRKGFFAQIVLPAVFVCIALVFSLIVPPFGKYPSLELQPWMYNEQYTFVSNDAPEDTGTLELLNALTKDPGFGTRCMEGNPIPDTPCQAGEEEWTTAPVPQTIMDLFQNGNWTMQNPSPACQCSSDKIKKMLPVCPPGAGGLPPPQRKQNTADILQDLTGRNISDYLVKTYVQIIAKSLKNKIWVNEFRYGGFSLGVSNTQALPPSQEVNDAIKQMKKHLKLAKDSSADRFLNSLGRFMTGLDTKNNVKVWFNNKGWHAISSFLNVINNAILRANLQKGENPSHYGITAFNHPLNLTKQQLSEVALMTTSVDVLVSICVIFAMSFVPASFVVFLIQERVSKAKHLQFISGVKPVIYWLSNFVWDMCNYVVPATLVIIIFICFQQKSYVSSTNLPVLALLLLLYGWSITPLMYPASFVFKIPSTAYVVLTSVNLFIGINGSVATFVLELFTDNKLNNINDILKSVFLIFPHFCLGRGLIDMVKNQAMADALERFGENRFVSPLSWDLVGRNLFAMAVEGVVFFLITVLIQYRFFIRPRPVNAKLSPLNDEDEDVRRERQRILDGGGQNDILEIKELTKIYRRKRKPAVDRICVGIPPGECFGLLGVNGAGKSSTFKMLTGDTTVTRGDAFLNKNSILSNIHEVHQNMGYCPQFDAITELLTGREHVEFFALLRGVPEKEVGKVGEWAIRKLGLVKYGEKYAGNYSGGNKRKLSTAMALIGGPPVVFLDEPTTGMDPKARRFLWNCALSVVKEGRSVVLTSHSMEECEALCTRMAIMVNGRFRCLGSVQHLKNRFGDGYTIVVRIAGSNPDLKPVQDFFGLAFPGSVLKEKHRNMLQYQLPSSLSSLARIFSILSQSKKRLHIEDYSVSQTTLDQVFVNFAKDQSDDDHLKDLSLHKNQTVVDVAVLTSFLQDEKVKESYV

## apolipoprotein A-I [apo A-I]
  Km: 0.15 ± 0.02 µM
  Km, cholesterol efflux: 4.53 ± 0.67 µg/mL
